Data as given in patent US20250270304A1 (PHENOMIC AI, published 2025).

Assays:
[1] = molecular target: T1, Mature Activin A (human, UniProt P08476 311-426); assay: ELISA dose-response, coated antigen
T1 construct: also called active Activin A; INHBA mature
T1 sequence: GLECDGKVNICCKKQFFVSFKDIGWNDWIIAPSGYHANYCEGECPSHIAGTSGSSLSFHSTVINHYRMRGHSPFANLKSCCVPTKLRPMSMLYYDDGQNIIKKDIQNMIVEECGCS
Protocol: (§1) Antibodies were re-expressed in 40 mL cultures of Expi293 cells and purified using protein G magnetic sepharose beads (Cytiva, Marlborough, MA) to provide larger quantities for secondary screening. Secondary screening included dose responses in both functional assays described above (SMAD nuclear localization and fibroblast activations assays) as well as in binding assays to the same antigens listed in Table 3. Plates were coated with 25 μL of 3 μg/mL antigen in 384-well Maxisorp plates overnight at 4° C. with agitation. The next day, the samples in the plates were blocked with 70 μL blocking buffer (PBS+1% BSA+0.1% Tween-20) for 2 hours at room temperature. Plates were then washed three times with 100 μL of wash buffer (PBS+0.1% Tween-20). Primary antibodies in Expi293 expression medium were diluted 1:3 in blocking buffer, 25 μL added per well, and the plates were incubated for an hour at room temperature with agitation. Plates were then washed three times and 25 μL of secondary antibody (goat anti-Human IgG, HRP conjugated; Jackson Immunoresearch) diluted 1:5000 in blocking buffer was added for 30 minutes at room temperature. The wells in the plates were washed six times with wash buffer and TMB substrate was added followed by 1 M H3PO4.

[2] = molecular target: T2, Latent Activin A (human, UniProt P08476 21-426, limits assumed); assay: ELISA dose-response, coated antigen
T2 construct: also called INHBA latent
T2 sequence: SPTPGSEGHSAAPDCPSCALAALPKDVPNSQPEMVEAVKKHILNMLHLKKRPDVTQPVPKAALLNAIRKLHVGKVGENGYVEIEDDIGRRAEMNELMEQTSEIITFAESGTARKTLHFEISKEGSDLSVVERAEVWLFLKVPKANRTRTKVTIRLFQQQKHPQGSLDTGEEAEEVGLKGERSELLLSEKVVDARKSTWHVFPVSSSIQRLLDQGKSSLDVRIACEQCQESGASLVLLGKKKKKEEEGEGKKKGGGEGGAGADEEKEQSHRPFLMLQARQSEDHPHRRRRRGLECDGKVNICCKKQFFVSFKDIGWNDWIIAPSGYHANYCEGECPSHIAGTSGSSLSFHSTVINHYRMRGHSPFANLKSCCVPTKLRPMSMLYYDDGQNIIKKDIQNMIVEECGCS
Protocol: as §1

[3] = molecular target: T1, Mature Activin A; assay: ELISA, coated antigen, OD450
[4] = molecular target: T3, Inhibin A (Homo sapiens (Human), UniProt P05111 233-366; P08476 311-426); assay: ELISA, coated antigen, OD450
T3 sequence 1: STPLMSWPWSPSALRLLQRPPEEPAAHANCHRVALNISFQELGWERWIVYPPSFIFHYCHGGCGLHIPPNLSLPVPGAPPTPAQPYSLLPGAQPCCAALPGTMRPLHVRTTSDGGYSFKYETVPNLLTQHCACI
T3 sequence 2: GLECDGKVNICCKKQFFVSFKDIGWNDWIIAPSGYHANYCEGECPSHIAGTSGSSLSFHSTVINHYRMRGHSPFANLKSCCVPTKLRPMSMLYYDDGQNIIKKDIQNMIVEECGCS

[5] = molecular target: T2, Latent Activin A; assay: ELISA, coated antigen, OD450
[6] = molecular target: T3, Inhibin A; assay: ELISA dose-response, coated antigen (row 'Inhibin')
Protocol: as §1

[7] = molecular target: T4, Inhibin B (Homo sapiens (Human), UniProt P05111 233-366; P09529 293-407); assay: the assays described above
T4 sequence 1: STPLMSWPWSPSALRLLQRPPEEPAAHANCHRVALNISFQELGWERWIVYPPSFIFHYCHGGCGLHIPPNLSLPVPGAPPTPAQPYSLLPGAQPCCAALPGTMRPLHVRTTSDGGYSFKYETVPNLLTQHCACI
T4 sequence 2: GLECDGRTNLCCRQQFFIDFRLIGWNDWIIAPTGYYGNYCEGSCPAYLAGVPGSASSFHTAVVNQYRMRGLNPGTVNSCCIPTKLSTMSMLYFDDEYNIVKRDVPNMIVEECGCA

[8] = molecular target: T5, Activin B (Homo sapiens (Human), UniProt P09529 293-407); assay: ELISA, coated antigen, OD450; secondary screen, single OD 450 reading as fold over negative control; below the 1.40-fold cut-off
T5 construct: also called Mature Activin B; mature Activin B
T5 sequence: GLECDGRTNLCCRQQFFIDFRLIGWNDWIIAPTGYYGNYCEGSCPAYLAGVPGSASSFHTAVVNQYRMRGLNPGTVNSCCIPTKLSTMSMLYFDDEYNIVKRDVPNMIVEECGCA
Protocol: as §1

[9] = molecular target: T1, Mature Activin A; assay: ELISA, coated antigen, OD450; negative control antibody
Protocol: as §1

[10] = molecular target: T3, Inhibin A; assay: as above
Protocol: as §1

[11] = molecular target: T2, Latent Activin A; assay: as above
Protocol: as §1

[12] = molecular target: T5, Activin B; assay: as above
Protocol: as §1

Binder | EC50 [1] | EC50 [2] | fold-change of OD 450 over negative control (BSA) [3] | fold-change of OD 450 over negative control (BSA) [4] | fold-change of OD 450 over negative control (BSA) [5] | EC50 [6] | binding result [7] | fold-change of OD 450 over negative control (BSA) [8] | binding result [9] | binding result [10] | binding result [11] | binding result [12]
Control 1 (antibody, V domains shown, also called AMGA1; Amga1) VH: QVQLVQSGAEVKKPGASVKVSCKASGYTFTSYGLSWVRQAPGQGLEWMGWIIPYNGNTNSAQKLQGRVTMTTDTSTSTAYMELRSLRSDDTAVYFCARDRDYGVNYDAFDIWGQGTMVTVSS VL: not shown | 0.03 nM | 0.03 nM | 16.3 fold | 11.7 fold | 18.7 fold | 0.02 nM | no binding | 0.57 fold | – | – | – | –
Control 3 (antibody, human IgG1, kappa, V domains shown, Negative control antibody; also called palivizumab) VH: QVTLRESGPALVKPTQTLTLTCTFSGFSLSTSGMSVGWIRQPPGKALEWLADIWWDDKKDYNPSLKSRLTISKDTSKNQVVLKVTNMDPADTATYYCARSMITNWYFDVWGAGTTVTVSS VL: DIQMTQSPSTLSASVGDRVTITCKCQLSVGYMHWYQQKPGKAPKLLIYDTSKLASGVPSRFSGSGSGTEFTLTISSLQPDDFATYYCFQGSGYPFTFGGGTKLEIKR | – | – | – | – | – | – | – | – | no binding | no binding | no binding | no binding
